Measurements reported in article PMC12510028, “A biophysical and molecular characterization of the interaction between the Alzheimer risk factor BIN1 and the neuronal scaffold protein p140Cap” (The Journal of Biological Chemistry, 2025).

Key:
[1] = biological target: Avi-tagged BIN1 SH3 domain (human) (UniProt O00499); experiment: SPR; Biacore S200, Biotin CAPture chip; biotinylated Avi-BIN1-SH3 captured on flow cell 2, Avi-tagged CTX-M-14 β-lactamase on reference flow cell 1; peptides injected as analytes at 30 μl/min; 25 °C, 1X PBS-P+; steady-state analysis, 1:1 model
BIN1 SH3 domain = biological target: T1, BIN1 SH3 domain (Homo sapiens, UniProt O00499); experiment: SPR equilibrium affinity of peptides for biotinylated BIN1-SH3 domain; assay type: binding; conditions: for binding to BIN1-SH3 in words: SPR, tested analyte concentrations 0.6–75 μM; for Kd: SPR Biacore S200, Biotin CAPture chip, Avi-BIN1-SH3 immobilised as ligand, peptide as analyte, reference cell CTX-M-14 subtracted, 25 °C, PBS-P+, steady-state 1:1 fit, mean ± SD of three technical replicates, p140Cap peptides tested 0.6–75 μM
T1 construct: His (N); made in house; host or cells: E. coli BL21 (DE3)
T1 sequence (O00499 520-593 limits assumed): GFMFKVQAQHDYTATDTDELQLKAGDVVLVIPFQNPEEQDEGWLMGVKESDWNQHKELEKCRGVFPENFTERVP
Method: We undertook a candidate approach to identify biologically relevant neuronal proteins that interact with BIN1’s SH3 domain (Fig. 1A). First, we referenced published KD calculations for several BIN1 SH3 domain ligands ([45]), setting a KD cut-off at <10 μM for our study. Then, we obtained a published index of potential protein interactors from a study that computationally predicted the top 100 peptide binding partners for each of 70 human SH3 domains, generated by SH3PepInt, an alignment-free, graph kernel-based tool ([46]). We curated the predicted BIN1 SH3-binding proteins using a set of criteria to ensure: 1) neuronal expression, 2) subcellular localization at the synapse, and 3) molecular functions relevant to neuronal BIN1 in neurotransmitter vesicle dynamics ([25]). We then utilized available protein structures in the Protein Data Bank or those predicted by AlphaFold to confirm the accessibility of each putative SH3-binding site within the full-length protein, prioritizing peptides known to adopt the left-handed polyproline-II helix. From these analyses, we nominated 10 proteins for an initial screening using 14-mer peptides in surface plasmon resonance (SPR) analysis (Fig. 1B). The purified Avi-tagged BIN1 SH3 domain was immobilized as the ligand on flow cell 2, while a nonbinding control protein was immobilized on flow cell 1 (Fig. S1). Subsequently, each peptide was injected in solution over the sensor surface as the analyte (Fig. 1B). To correct for nonspecific binding, response units from flow cell 1 were subtracted from those of flow cell 2 to determine the KD.
The ^1033KPSKSPPPPPPRRS^1046 p140Cap peptide harbors three canonical PRMs: class I, ^1036KSPPPPP^1042; class IIa, ^1038PPPPPRR^1045; and class IIb, ^1037PPPPPPR^1044 (Fig. 2A). […] Thus, we used SPR in combination with alanine-scanning mutagenesis to determine which of the three class motifs on p140Cap mediates binding to BIN1’s SH3 domain. We synthesized 14-mer peptides with alanine substitutions at either the basic residues alone or in combination with the corresponding prolines for all three canonical PRM classes. We also synthesized 7-mer peptides containing the native core motif for cross-referencing (Fig. 2B). […] We reasoned that alanine substitution of residues not involved in BIN1-SH3 binding would produce similar, if not identical, KDs to the native 14-mer peptide. […] Thus, we would be able to identify the precise motif responsible for facilitating the BIN1–p140Cap interaction.
All experiments were conducted using the Biacore S200 (GE Healthcare), equipped with a series S Biotin Capture chip (Cytiva Life Sciences) at 25 °C in 1X PBS-P + [0.2 M phosphate buffer with 27 mM KCl, 1.37 M NaCl, and 0.5% surfactant P20 (Tween 20)] running buffer. The chip surface was first conditioned with three 1-min injections of regeneration solution (3:1 8 M guanidine-HCl: 1 M NaOH) immediately after docking. Biotin CAPture reagent (50 μg/ml in HBS-EP buffer [0.01 M Hepes (pH 7.4), 0.15 M NaCl, 3 mM EDTA, 0.005% surfactant P20]), 3.4 ml) was immobilized on the chip surface at a flow rate of 2 μl/min for 5 min prior to ligand immobilization. Affinity run assays were conducted by immobilizing 50 μg/ml Avi-BSH3 (12 kDa, >90% pure based on SDS-PAGE) diluted in 1X PBS-P+ running buffer at 5 ul/min for 60 s on a streptavidin-coated matrix on flow cell 2. Additionally, 50 μg/ml Avi-tagged nonbinding protein (CTX-M-14 β-lactamase, 30 kDa, >90% pure based on SDS-PAGE) diluted in 1X PBS-P+ running buffer was immobilized at 5 μl/min for 60 s on flow cell 1 to serve as a reference surface for subtraction of bulk refractive index background. To collect affinity data, the analytes were diluted in running buffer and injected over the two flow cells in serial dilution at a flow rate of 30 μl/min. The complexes were allowed to associate and dissociate for 30 s and 300 s, respectively. The surfaces were then regenerated with three 60 s injections of regeneration solution. […]

nsP3 (Chikungunya virus) = nsP3 (Chikungunya virus) (UniProt Q8JUX6); conditions: cited from earlier work
[2] = biological target: GST-tagged BIN1-SH3 domain MutK (K30R, rs138047593) (human); experiment: pull-down; 25 μg GST or GST-BSH3 (WT or mutant) on glutathione-Sepharose with 0.5 mg of 1% Triton X-100 soluble mouse brain homogenate, 2 h at room temperature; washes with 50 mM KCl, 150 mM NaCl, 1.5% IGEPAL; immunoblot for p140Cap and total tau
[3] = biological target: T2, Avi-tagged BIN1 SH3 domain (human, UniProt O00499 520-593, biotin within the 15 amino acid AviTag peptide (enzymatic, in E. coli)); experiment: SPR
T2 chain: T1 sequence (O00499 520-593 limits assumed)

[4] = biological target: T3, Avi-tagged BIN1 SH3 domain (human, UniProt O00499 520-593, biotin within the 15 amino acid AviTag peptide (enzymatic, in E. coli)); experiment: SPR; Biacore S200, Biotin CAPture chip; biotinylated Avi-BIN1-SH3 captured on flow cell 2, Avi-tagged CTX-M-14 β-lactamase on reference flow cell 1; peptides injected as analytes at 30 μl/min; 25 °C, 1X PBS-P+; steady-state analysis, 1:1 model; conditions: both partners purified
T3 construct: human BIN1 (bridging integrator 1), the C-terminal 81 amino acids that encompass the SH3 domain; 12 kDa by the methods; vector pAviBir, insert between BamHI and NotI; also called Avi-BSH3; AviBir-Bin1 SH3; source: E. coli BL21 (DE3), purified (HisTrap HP, Sephacryl S-200 gel filtration); not shown: AviTag, N-terminal, kept
T3 sequence (looked up): T1 sequence (O00499 520-593 limits assumed)

[5] = biological target: T2, Avi-tagged BIN1 SH3 domain; experiment: SPR

Molecule “p140Cap 14-mer peptide 1033-1046 with alanine substitution of the C-terminal arginine (class IIa) (from UniProt Q9C0H9 1033-1046)” has a Kd [1] of 26.3 µM.

With “p140Cap 14-mer peptide 1033-1046 with alanine substitution of the class I lysine (from UniProt Q9C0H9 1033-1046)” the Kd [1] was 6.32 µM.

For “Ac-PPPPPPR-NH2 (N-terminus and C-terminus assumed) [PPPPPPR]”, the “binding to BIN1-SH3 in words” value (BIN1 SH3 domain) was “outside the range of tested analyte concentrations”.

With Ac-KPSKSPPAPPARAS-NH2 [KPSKSPPAPPARAS] the Kd (BIN1 SH3 domain) was over 75 µM.

In the case of BIN1 SH3 (from UniProt O00499), the Kd (nsP3 (Chikungunya virus)) is listed as 0.024 µM.

Molecule Ac-ERSLVGFGPPVPAK-NH2 [p140Cap583-596] has a Kd (BIN1 SH3 domain) of over 75 µM.

In the case of Ac-KPSKSPAPPAPARS-NH2 [KPSKSPAPPAPARS], the Kd (BIN1 SH3 domain) is reported as over 75 µM.

In the case of “Ac-KSPPPPP-NH2 (N-terminus and C-terminus assumed) [KSPPPPP]”, the “binding to BIN1-SH3 in words” value (BIN1 SH3 domain) is reported as “no binding within the range of tested analyte concentrations”.

Work on “p140Cap 14-mer peptide 1033-1046 with alanine substitution of the class I lysine and its corresponding prolines (from UniProt Q9C0H9 1033-1046)” yielded a Kd [1] of 21 µM.

With “tau from mouse brain (from UniProt P10637-2 1-430) (natural protein)” the fold less bound than to WT BIN1-SH3 [2] was 2 fold.

Ac-GYGFRLPPSSPQKL-NH2 [p140Cap498-512] gave a Kd (BIN1 SH3 domain) of over 75 µM.

Work on Ac-ERSLVGFGPPVPAK-NH2 [p140Cap 14-mer peptide 583-596] yielded a Kd [3] of over 75 µM.

B1: p140Cap native class IIa 7-mer peptide (peptide)
peptide: PPPPPRR
notes: human p140Cap, class IIa PRM of the C-terminal proline-rich domain; source: synthetic peptide
For B1, the Kd [4] was 31.7 µM.

B2: tau 13-mer peptide 154-166 (peptide)
peptide: TPSLPTPPTREPK
notes: tau, proline-rich domain, class II PRM extended at both ends; The methods tell acetylation and amination of the ends only for the 14-residue peptides; also called tau_(154-166); 13-mer tau peptide; source: synthetic peptide
Work on B2 yielded a Kd [4] of 484 µM.

B3: p140Cap from mouse brain (natural protein)
chain: MQPWQCLRRFALAWWERTAEGRARSPREEVGPRDPGGRGEPDPERSSPPMLSADDAEYPREYRTLGGGGGGGSGGRRFSNVGLVHTSERRHTVIAAQSLEALSGLQKADADRKRDAFMDHLKSKYPQHALALRGQQDRMREQVGGWTVDPVCLLSSLCSHLHGDSTPSGAGQPAQQPNYWSFKTRSSRHTQGAQPGLADQAAKLSYASAESLETMSEAELPLGFSRMNRFRQSLPLSRSASQTKLRSPGVLFLQFGEETRRVHITHEVSSLDTLHALIAHMFPQKLTMGMLKSPNTAILIKDEARNVFYELEDVRDIQDRSIIKIYRKEPLYAAFPGSHLTNGDLRREMVYASRESSPTRRLNNLSPASHLASSSPPPGLPSGLPSGLPSGSPSRSRLSYAGGRPPSYAGSPVHHAAERLGGAPTGQGVSPSPSAILERRDVKPDEDLAGKAGGMVLVKGEGLYADPYGLLHEGRLSLAAAAETHSHTRARAACTSGVPCALSAPTPLPRCSPTWRTRCTRRALAALYGDGYGFRLPPSSPQKLADVSAPSGGPPPPHSPYSGPPSRGSPVRQSFRKDSGSSSVFAESPGGKARSTGSASTAGAPPSELFPGPGERSLVGFGPPVPAKDTETRERMEAMEKQIASLTGLVQSALLRGSEPETPSEKVEGSNGAATPSAPVCGSGSKSSGATPVSGPPPPSASSTPAGQPTAVSRLQMQLHLRGLQNSASDLRGQLQQLRNVQLQNQESVRALLKPTEADVSMRVSEAARRQEDPLQRQRTLVEEERLRYLNDEELITQQLNDLEKSVEKIQRDVAHNHRLMPGPELEEKALVLKQLGETLTELKAHFPGLQSKMRVVLRVEVEAVKFLKEEPQRLDGLLKRCRGVTDTLAQIRRQVDEGMWPPPNNLLNQSPKKVAAETDFSKGLDFEIPPPSPPLNLHELSGPAEGTPLTPKSTNPTKCLDASSKRNTDKAVSVEAAERDWEEKRAALTQYSAKDINRLLEETQAELLKAIPDLDCASKTHPGPAPTPDHKPPKAPHGQKAAPRTEPSGRRGSDELTVPRYRTEKPSKSPPPPPPRRSFPSSHGLTTTRTGEVVVTSKKDSVFIKKAESEELEVQKPQVKLRRAVSEVVRPASTPPIMASAIKDEDDEERIIAELESGGSSVPPMKVVTPGASRLKAAQGPAGSPDKGKHGKQRTEYMRIQAQQQATKPSKEVSGPNETSSPGSEKPSGSRTSIPVLTSFGARNSSISF
With B3 the fold less bound than to WT BIN1-SH3 [2] was 2.6 fold.

B4: p140Cap 14-mer peptide 1033-1046 (peptide)
peptide: Ac-KPSKSPPPPPPRRS-NH2
notes: also called p140Cap_(1033-1046); native 14-mer peptide; source: synthetic peptide (GenScript, reversed-phase HPLC, ≥95% purity)
B4 gave a Kd [4] of 7.7 µM.

In the case of Ac-KPSKSPPPPPPARS-NH2 [p140Cap 14-mer peptide 1033-1046 with alanine substitution of the N-terminal arginine (class IIb)], the Kd [5] is reported as over 75 µM.

In the case of PPPPPPR [p140Cap native class IIb 7-mer peptide], the Kd [5] is reported as over 75 µM.

Molecule Ac-GYGFRLPPSSPQKL-NH2 [p140Cap 14-mer peptide 498-512] has a Kd [3] of over 75 µM.

Molecule KSPPPPP [p140Cap native class I 7-mer peptide] has a Kd [5] of over 75 µM.

In the case of Ac-KPSKSPPAPPARAS-NH2, the Kd [4] is reported as over 75 µM.

B5: tau 6-mer peptide 158-163 (peptide)
peptide: PTPPTR
notes: tau, proline-rich domain, minimum consensus class II PRM; The methods tell acetylation and amination of the ends only for the 14-residue peptides; also called tau_(158-163); 6-mer tau peptide; source: synthetic peptide
B5 gave a Kd [4] of 288 µM.
